Reference: article PMC5120866 (Cancer research, 2016)

Target: Integrin β3 (human (endogenous in ovarian cancer …, UniProt P05106 27-788))
Test: co-IP

Integrin β3 (human, sequence (P05106 27-788): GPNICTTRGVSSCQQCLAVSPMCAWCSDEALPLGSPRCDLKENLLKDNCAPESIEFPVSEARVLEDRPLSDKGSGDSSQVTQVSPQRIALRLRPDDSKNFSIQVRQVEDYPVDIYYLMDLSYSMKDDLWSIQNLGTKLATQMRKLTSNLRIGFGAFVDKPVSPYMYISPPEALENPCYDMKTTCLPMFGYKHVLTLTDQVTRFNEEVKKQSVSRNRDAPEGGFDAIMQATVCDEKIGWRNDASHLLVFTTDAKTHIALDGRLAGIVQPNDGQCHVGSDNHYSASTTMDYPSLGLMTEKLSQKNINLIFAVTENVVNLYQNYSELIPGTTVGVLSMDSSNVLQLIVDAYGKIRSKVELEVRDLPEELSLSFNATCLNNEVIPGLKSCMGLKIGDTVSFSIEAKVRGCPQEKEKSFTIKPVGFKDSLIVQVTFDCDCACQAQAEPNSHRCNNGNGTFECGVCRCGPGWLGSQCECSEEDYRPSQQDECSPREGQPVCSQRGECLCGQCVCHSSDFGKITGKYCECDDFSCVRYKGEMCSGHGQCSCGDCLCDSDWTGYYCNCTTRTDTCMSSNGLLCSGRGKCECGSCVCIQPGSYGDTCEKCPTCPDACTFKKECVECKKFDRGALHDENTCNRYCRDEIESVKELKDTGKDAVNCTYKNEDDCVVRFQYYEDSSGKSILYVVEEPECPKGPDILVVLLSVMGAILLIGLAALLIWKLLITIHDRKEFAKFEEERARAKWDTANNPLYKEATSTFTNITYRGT

fold co-immunoprecipitation against EGFL6^RGE: 4.6 fold
B1: EGFL6 (wild-type, FLAG-EGFL6) (ligand, human, UniProt Q8IUX8-1 22-553, looked up)
chain: NAASARHHGLLASARQPGVCHYGTKLACCYGWRRNSKGVCEATCEPGCKFGECVGPNKCRCFPGYTGKTCSQDVNECGMKPRPCQHRCVNTHGSYKCFCLSGHMLMPDATCVNSRTCAMINCQYSCEDTEEGPQCLCPSSGLRLAPNGRDCLDIDECASGKVICPYNRRCVNTFGSYYCKCHIGFELQYISGRYDCIDINECTMDSHTCSHHANCFNTQGSFKCKCKQGYKGNGLRCSAIPENSVKEVLRAPGTIKDRIKKLLAHKNSMKKKAKIKNVTPEPTRTPTPKVNLQPFNYEEIVSRGGNSHGGKKGNEEKMKEGLEDEKREEKALKNDIEERSLRGDVFFPKVNEAGEFGLILVQRKALTSKLEHKDLNISVDCSFNHGICDWKQDREDDFDWNPADRDNAIGFYMAVPALAGHKKDIGRLKLLLPDLQPQSNFCLLFDYRLAGDKVGKLRVFVKNSNNALAWEKTTSEDEKWKTGKIQLYQGTDATKSIIFEAERGKGKTGEIAVDGVLLVSGLCPDSLLSVDD
